Numbering of substitutions follows the chain as printed. In names and notes the source's numbering stands.
B1: ΔK233/K234: E. coli YggS variant lacking the last two C-terminal residues K233 and K234 (protein)
chain: MNDIAHNLAQVRDKISAAATRCGRSPEEITLLAVSKTKPASAIAEAIDAGQRQFGENYVQEGVDKIRHFQELGVTGLEWHFIGPLQSNKSRLVAEHFDWCHTIDRLRIATRLNDQRPAELPPLNVLIQINISDENSKSGIQLAELDELAAAVAELPRLRLRGLMAIPAPESEYVRQFEVARQMAVAFAGLKTRYPHIDTLSLGMSDDMEAAIAAGSTMVRIGTAIFGARDYS
modifications: left off: His-tag, N-terminal, state not stated
B2: WT: recombinant His-tagged wild-type E. coli YggS, the PLP homeostasis protein (PLPHP) (protein)
chain: MNDIAHNLAQVRDKISAAATRCGRSPEEITLLAVSKTKPASAIAEAIDAGQRQFGENYVQEGVDKIRHFQELGVTGLEWHFIGPLQSNKSRLVAEHFDWCHTIDRLRIATRLNDQRPAELPPLNVLIQINISDENSKSGIQLAELDELAAAVAELPRLRLRGLMAIPAPESEYVRQFEVARQMAVAFAGLKTRYPHIDTLSLGMSDDMEAAIAAGSTMVRIGTAIFGARDYSKK
modifications: PLP covalently bound to Lys36 through a Schiff base linkage; left off: His-tag, end not stated, kept
B3: K36A/K38A/K233A/K234A: E. coli YggS triple lysine variant (protein)
chain: B2 chain with K36A, K38A, K233A, K234A
modifications: left off: His-tag, C-terminal, state not stated
notes: E. coli YggS triple lysine variant
B4: K36A/K38A/K137A/K233A/K234A: E. coli YggS quadruple lysine variant (protein)
chain: B2 chain with K36A, K38A, K137A, K233A, K234A
modifications: left off: His-tag, C-terminal, state not stated
notes: E. coli YggS quadruple lysine variant
B5: K36A/K137A/K233A/K234A: E. coli YggS triple lysine variant (protein)
chain: B2 chain with K36A, K137A, K233A, K234A
modifications: left off: His-tag, C-terminal, state not stated
notes: as for B3
B6: K36A/K38A/K137A: E. coli YggS triple lysine variant (protein)
chain: B2 chain with K36A, K38A, K137A
modifications: left off: His-tag, C-terminal, state not stated
notes: as for B3

Assays:
apo‐YggS = target: T1, apo‐YggS (Escherichia coli, UniProt P67080); experiment: biochemical; format: binding; conditions: WT apo-YggS
T1 construct: made in house; host or cells: E. coli HMS174(DE3)
Method: Equilibrium binding analyses were carried out by measuring the decrease of protein intrinsic fluorescence observed upon the addition of increasing PLP concentrations to a fixed concentration of apo‐YggS (Figure 1b).
Dissociation constants were calculated from saturation curves obtained measuring the protein fluorescence emission intensity as a function of increasing PLP concentration. […] Fluorescence emission spectra were recorded from 310 to 450 nm upon excitation at 280 nm. Excitation and emission slits were set at 3 and 5 nm, respectively.

E. coli ΔyggS = experiment: 4dPN sensitivity assay and complementation by YggS variants in trans; format: cell-based, Escherichia coli
Method: Bacteria were grown in Luria‐Bertani (LB; Tryptone 10 g L^− 1, Yeast extract 5 g L^− 1, NaCl 10 g L^− 1) or M9 minimal medium (Cold Spring Harbor Protocols, Cold Spring Harbor, NY) at 37°C, unless otherwise specified. Growth media were solidified with agar (16 g L^− 1; Fisher Scientific) for the preparation of plates. 4dPN toxicity assays were performed on thin (20 ml) M9 minimal medium plates containing 0.4% glucose (carbon source), ampicillin (100 μg ml^−1), 1 μM PN, and 0.02% or 0.2% arabinose when appropriate.
Wild‐type yggS was amplified by PCR with primers DH596 and DH598 from E. coli BW25113 and cloned in pBAD24 using restriction sites SphI and NcoI to give pBY291.3. The pBY291.3 plasmid and its derivatives were then used as templates with the NEB Q5 Site‐Directed Mutagenesis Kit and the primer pairs indicated in Table S4 to introduce site‐directed residue mutant constructs. All constructs were verified by sequencing and transformed into E. coli wild‐type (BW25113) and ΔyggS (VDC6594) electrocompetent cells for use in physiological studies. Plasmid transformations were performed following standard procedures and protein expression from each construct was confirmed by SDS‐PAGE and western blot analysis.
Three isolated colonies of each strain were inoculated into 5 ml LB Amp 200 μg ml^− 1 and incubated at 37°C and 200 rpm overnight. Overnight cultures were diluted 1:500 into 5 ml fresh LB Amp 200 μg ml^− 1 ± 0.02% or 0.2% arabinose and grown at 37°C, shaking. Once cultures reached midlog growth (OD600 of 0.4–0.7) samples were taken from each culture for western blot analysis (below) then cells were again incubated until stationary growth was reached (~6 hr). Cells were harvested by centrifugation then washed twice with and resuspended in 1x PBS. Optical density of washed cells was measured at 600 nm in 1 ml cuvettes (Fisher Scientific) using a BioSpec‐mini DNA/RNA/Protein analyzer (Shimadzu Biotech) and each strain was normalized to an OD600 of 0.006 in 3 ml 1x PBS. […]

[1] = PLP binding equilibrium of YggS WT and variant forms, intrinsic fluorescence change; conditions: E. coli YggS form 0.1 μM, 50 mM NaHEPES pH 7.6, 25°C, excitation 280 nm; mean ± SEM; read-out: K D (nM) of the PLP binding equilibrium
Method: Analyses took advantage of YggS intrinsic fluorescence decrease observed upon binding of PLP. Dissociation constants were calculated from saturation curves obtained measuring the protein fluorescence emission intensity as a function of increasing PLP concentration. Fluorescence emission measurements were carried out at 25°C, in 50 mM NaHEPES buffer at pH 7.6 with a FluoroMax‐3 Jobin Yvon Horiba spectrofluorometer, using a 1‐cm path length quartz cuvette. All analyzed YggS forms were used at a final subunit concentration of 0.1 μM. Fluorescence emission spectra were recorded from 310 to 450 nm upon excitation at 280 nm. Excitation and emission slits were set at 3 and 5 nm, respectively. Emission fluorescence values between 330 and 340 nm were averaged and analyzed using the following quadratic equation to obtain K D value: (1) Frel=Finf−F0×PLP+[YggS]+KD−PLP+[YggS]+KD^2−4[YggS]PLP/2/[YggS]+F0

[2] = Differential scanning fluorimetry (DSF), apparent Tm of YggS forms; format: physicochemical; conditions: for T m (°C) Apo +2 μM PLP: 2 μM protein + 2 μM (equimolar) PLP; for T m (°C) Apo + 300 μM PLP: 2 μM protein + 300 μM PLP; for T m (°C) Apo: apo-form, 2 μM protein, no PLP
Method: Differential scanning fluorimetry (DSF) assays were performed on a Real Time PCR Instrument (CFX Connect Real Time PCR system, Bio‐Rad, Hercules, CA). In a typical experiment, 2 μM WT and variant apo‐YggS forms in 50 mM NaHEPES, pH 7.5, 50 mM NaCl, and Sypro Orange (5x, Thermo Scientific) were mixed with various ligands (total volume of 25 μl) in a 96‐well PCR plate. Fluorescence was measured from 25°C to 95°C in 0.4°C/30 s steps (excitation 450–490 nm; detection 560–580 nm). All samples were run in triplicate. Denaturation profiles were analyzed as described in Nardella et al.[40]

[3] = Covalent (Schiff base) PLP binding judged by absorption spectra; conditions: ~416–420 nm band
Method: Our strategy was to start from the K36A variant and gradually add further variations so as to obtain all possible combinations of double, triple, and quadruple variants. Variations of the last two residues at the C‐terminal end of the protein, K233 and K234, were always introduced together and are therefore considered as a single K233A/K234A variation.
All spectroscopic measurements were carried out at 20°C in 20 mM NaHEPES pH 7.5. UV–visible spectra were recorded with a Hewlett‐Packard 8453 diode‐array spectrophotometer. Far‐UV (190–250 nm) and Near‐UV–visible (250–500 nm) CD spectra were measured with a Jasco 710 spectropolarimeter equipped with a DP 520 processor using 0.1‐cm (far‐UV) or 1‐cm path length quartz cuvettes and results were expressed as ellipticity [Θ]. Absorption spectra of WT and variant forms were deconvoluted into their component bands using Metzler's band‐shape analysis method.[22]

apo‐eSHMT = apo‐eSHMT (Escherichia coli, UniProt P0A825)
Chain of apo‐eSHMT (P0A825 whole entry): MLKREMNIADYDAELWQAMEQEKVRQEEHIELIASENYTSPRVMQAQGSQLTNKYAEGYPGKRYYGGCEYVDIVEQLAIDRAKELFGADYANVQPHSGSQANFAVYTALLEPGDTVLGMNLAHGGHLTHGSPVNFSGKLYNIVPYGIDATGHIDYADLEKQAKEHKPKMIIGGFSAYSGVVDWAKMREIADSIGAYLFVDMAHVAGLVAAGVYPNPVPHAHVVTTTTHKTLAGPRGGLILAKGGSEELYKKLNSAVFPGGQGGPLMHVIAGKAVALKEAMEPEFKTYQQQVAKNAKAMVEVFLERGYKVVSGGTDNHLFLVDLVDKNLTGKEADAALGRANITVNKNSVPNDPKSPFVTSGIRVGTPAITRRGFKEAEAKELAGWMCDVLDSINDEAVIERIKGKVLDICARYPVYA
Method: We set up a novel in vitro discontinuous assay in which PLP transfer from holo‐YggS to the apo‐form of eSHMT could be followed (see Section 4 for details). In this assay, the increase in SHMT activity is measured as PLP dissociates from holo‐YggS and binds to apo‐SHMT, forming the catalytically active holo‐SHMT. […] The binding kinetics of free PLP to either apo‐YggS or apo‐SHMT was measured by manually mixing 20 μM free PLP with 20 μM of protein, observing the formation of the internal aldimine at 420 nm.
WT Holo‐YggS (20 μM with respect to PLP) was mixed with 20 μM apo‐eSHMT in 50 mM NaHEPES buffer at pH 7.6.

[4] = 20 μM holo-YggS, 20 μM apo-SHMT, 37°C

Molecule	change in fluorescence emission attributable to binding (apo‐YggS)	Kd [1]	T m (°C) Apo +2 μM PLP [2]	T m (°C) Apo + 300 μM PLP [2]	T m (°C) Apo [2]	capability to bind PLP covalently as a Schiff base [3]	also measured
Cc1ncc(CO)c(C)c1O [4dPN, 4‐deoxypyridoxine, reference compound]	could only be detected with PL and PNP						4dPN sensitivity (ring of growth inhibition) (E. coli ΔyggS; 20 μl of 25 mM 4dPN in central well, M9 minimal medium with 1 μM PN): clear 4dPN sensitivity phenotype
Cc1ncc(COP(=O)(O)O)c(C)c1O [4dPNP]	could only be detected with PL and PNP						
Cc1ncc(CO)c(CO)c1O [PN, pyridoxine]	could only be detected with PL and PNP						
B1		2.8 ± 0.7 nM	73.1 ± 0.3 °C	84.0 ± 0.4 °C	61.4 ± 0.8 °C	able to bind PLP as a Schiff base	
B2		1.3 ± 0.8 nM	70.8 ± 0.8 °C	82.2 ± 0.1 °C	55.1 ± 0.3 °C		T m (°C) Apo +2 μM PLP ([2]; listed as apo‐YggS): 70 °C; T m (°C) Apo + 300 μM PLP ([2]; listed as apo‐YggS): about 82 °C; T m (°C) Apo ([2]; listed as apo‐YggS): 56 °C; PLP initially bound to YggS transferred to SHMT at equilibrium (apo‐eSHMT; [4]): approximately 15%; time to reach PLP transfer equilibrium (apo‐eSHMT; [4]): about 30 min; rate constant of PLP transfer (apo‐eSHMT; 20 μM holo-YggS, 20 μM apo-SHMT, 37°C, 50 mM NaHEPES pH 7.6): 0.14 ± 0.02 min⁻¹; complementation of the 4dPN sensitivity phenotype of ΔyggS (E. coli ΔyggS; expression in trans, M9 0.4% glucose, 1 μM PN, 20 μl of 25 mM 4dPN): complemented
B3			68.9 ± 0.1 °C	69.6 ± 0.1 °C	68.8 ± 0.1 °C	lost the capability to bind PLP covalently	
B4			68.8 ± 0.1 °C	69.1 ± 0.3 °C	68.7 ± 0.1 °C	lost the capability to bind PLP covalently	
B5			64.7 ± 0.1 °C	66.0 ± 0.1 °C	64.6 ± 0.1 °C		
B6		43 ± 19 nM	69.4 ± 0.1 °C	75.2 ± 1.2 °C	68.9 ± 0.2 °C		PLP transfer kinetics compared with WT YggS (apo‐eSHMT; transfer to apo-SHMT): faster and much more extensive transfer of PLP

— PMC9601805, “Characterization of the Escherichia coli pyridoxal 5′‐phosphate homeostasis protein (YggS): Role of lysine residues in PLP binding and protein stability” (Protein Science : A Publication of the Protein Society, 2022)
